{"source": "paper PMC9932110", "about": "“RanBP9 controls the oligomeric state of CTLH complex assemblies” (The Journal of Biological Chemistry, 2023)", "key": {"Wdr26 [1]": {"target": "T1, Wdr26 (mouse, UniProt Q8C6G8 1-641)", "T1 chain": "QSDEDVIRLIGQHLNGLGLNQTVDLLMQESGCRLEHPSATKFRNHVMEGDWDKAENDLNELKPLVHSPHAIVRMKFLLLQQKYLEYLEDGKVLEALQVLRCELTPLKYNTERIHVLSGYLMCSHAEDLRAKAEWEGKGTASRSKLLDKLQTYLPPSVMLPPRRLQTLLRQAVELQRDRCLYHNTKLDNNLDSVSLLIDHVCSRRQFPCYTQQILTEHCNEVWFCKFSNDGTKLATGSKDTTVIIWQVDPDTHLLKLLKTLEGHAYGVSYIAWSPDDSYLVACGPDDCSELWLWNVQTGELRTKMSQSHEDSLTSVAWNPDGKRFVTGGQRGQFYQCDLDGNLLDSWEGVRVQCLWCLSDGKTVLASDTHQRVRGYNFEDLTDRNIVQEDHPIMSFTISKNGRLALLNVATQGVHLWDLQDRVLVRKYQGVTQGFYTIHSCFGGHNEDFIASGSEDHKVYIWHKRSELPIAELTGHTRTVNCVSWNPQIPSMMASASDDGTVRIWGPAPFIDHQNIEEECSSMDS", "experiment": "SEC-MALS; Superose 6 10/300 GL, SEC buffer; molar mass of single proteins and of complexes assembled from purified proteins", "conditions": "both partners purified"}, "Wdr26 [2]": {"target": "T1, Wdr26", "experiment": "SEC-MALS; Wdr26 alone, dilution series from four batches, Superose 6 10/300 GL; molar mass at the peak against peak concentration, one-site model; dimer to higher oligomers; saturation not reached", "conditions": "both partners purified"}, "[3]": {"target": "the molecule itself", "experiment": "SEC-MALS; Superose 6 10/300 GL, SEC buffer; molar mass of single proteins and of complexes assembled from purified proteins"}}, "note": "Several values for one entry are separate records, joined by “and”; a condition that tells them apart may be missing. Equal entries are not always repeated.", "data": [{"binder": "Wdr26 (natural protein, Supplement: residues 1-101 deleted. Paper gives 625 residues, matching E0CYH4 (CTLH 136-195) rather than the 641-aa Q8C6G8 canonical form (CTLH 136-211). Forms a concentration-dependent oligomer …) QSDEDVIRLIGQHLNGLGLNQTVDLLMQESGCRLEHPSATKFRNHVMEGDWDKAENDLNELKPLVHSPHAIVRMKFLLLQQKYLEYLEDGKVLEALQVLRCELTPLKYNTERIHVLSGYLMCSHAEDLRAKAEWEGKGTASRSKLLDKLQTYLPPSVMLPPRRLQTLLRQAVELQRDRCLYHNTKLDNNLDSVSLLIDHVCSRRQFPCYTQQILTEHCNEVWFCKFSNDGTKLATGSKDTTVIIWQVDPDTHLLKLLKTLEGHAYGVSYIAWSPDDSYLVACGPDDCSELWLWNVQTGELRTKMSQSHEDSLTSVAWNPDGKRFVTGGQRGQFYQCDLDGNLLDSWEGVRVQCLWCLSDGKTVLASDTHQRVRGYNFEDLTDRNIVQEDHPIMSFTISKNGRLALLNVATQGVHLWDLQDRVLVRKYQGVTQGFYTIHSCFGGHNEDFIASGSEDHKVYIWHKRSELPIAELTGHTRTVNCVSWNPQIPSMMASASDDGTVRIWGPAPFIDHQNIEEECSSMDS", "values": [{"measurement": "stoichiometry N", "setting": "Wdr26 [1]", "value": 2}, {"measurement": "Kd", "setting": "Wdr26 [2]", "value": 10, "unit": "µM"}, {"measurement": "stoichiometry N", "setting": "Wdr26 [2]", "value": "≥ 8 and 12"}]}, {"binder": "muskelin (natural protein, rat, UniProt Q99PV3 1-735, looked up, muskelin, rat, 735 residues) MAAGGAVAAAPECRLLPYALHKWSSFSSTYLPENILVDKPNDQSSRWSSESNYPPQYLILKLERPAIVQNITFGKYEKTHVCNLKKFKVFGGMNEENMTELLSSGLKNDYNKETFTLKHKIDEQMFPCRFIKIVPLLSWGPSFNFSIWYVELSGIDDPDIVQPCLNWYSKYREQEAIRLCLKHFRQHNYTEAFESLQKKTKIALEHPMLTDMHDKLVLKGDFDACEELIEKAVNDGLFNQYISQQEYKPRWSQIIPKSTKGDGEDNRPGMRGGHQMVIDVQTETVYLFGGWDGTQDLADFWAYSVKENQWTCISRDTEKENGPSARSCHKMCIDIQRRQIYTLGRYLDSSVRNSKSLKSDFYRYDIDTNTWMLLSEDTAADGGPKLVFDHQMCMDSEKHMIYTFGGRILTCNGSVDDSRASEPQFSGLFAFNCQCQTWKLLREDSCNAGPEDIQSRIGHCMLFHSKNRCLYVFGGQRSKTYLNDFFSYDVDSDHVDIISDGTKKDSGMVPMTGFTQRATIDPELNEIHVLSGLSKDKEKREENVRNSFWIYDIVRNSWSCVYKNDQAAKENLSKSLQEEEPCPRFAHQLVYDELHKVHYLFGGNPGKSCSPKMRLDDFWSLKLCRPSKDYLLRHCKYLIRKHRFEEKAQMDPLSALKYLQNDLYITVDHSDPEETKEFQLLASALFKSGSDFTALGFSDVDHTYAQRTQLFDTLVNFFPDSMTPPKGNLVDLITL", "values": [{"measurement": "stoichiometry N", "setting": "[3]", "value": 4}]}]}
